Test results reported in the supplement of paper PMC12764529.
± gives the half width of the 95% confidence interval.

Key:
[1] = folding stability dG unfold (combined trypsin and chymotrypsin); higher = more stable
Summary of the method: (§1)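 Designed mini-proteins with no cysteine and under 80 residues were kept only if AlphaFold2 dimer inter-PAE was above 15. In a PA-tagged cDNA display construct, they were digested with trypsin and chymotrypsin and then sequenced. K50 was inferred by Bayesian fitting of counts, and unfolding free energy was derived per protease or combined against a sequence-predicted unfolded-state K50 and a shared folded-state K50.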

[2] = folding stability dG unfold from chymotrypsin proteolysis; higher = more stable
Summary of the method: as §1

[3] = folding stability dG unfold from trypsin proteolysis; higher = more stable
Summary of the method: as §1

Sequence | folding stability dG unfold [1] [kcal/mol] | folding stability dG unfold [2] [kcal/mol] | folding stability dG unfold [3] [kcal/mol]
SKTVVVEINGYLIVVEEKKLENGETYYTVKIVNKKTKKVIEVKAKSKEEAEKAVLEALRKLFPDEELKKLSA [r9_749_TrROS_Hall] | 2.51 ± 0.35 | 2.45 ± 0.075 | 3.05 ± 0.15
SKVKIVKVEYDKETNVVTVTIYDEKTKKKIEIRYTPGKVEIVVEIDGKKLVLKFKTKEEALEAAKKLLKKSA [r9_527_TrROS_Hall] | 3.61 ± 0.2 | 3.94 ± 0.079 | 2.72 ± 0.089
SKVKPGEKVEYVEITITVDVKSVEELEKKLRELLGVKEVKVTVTEENGKLTLTIVVKSKEEADKLKELLSSA [r9_764_TrROS_Hall] | 1.47 ± 0.16 | 1.73 ± 0.066 | 1.22 ± 0.031
SKVKVEVVEVKYNKETKKFTVKLKVYNEDGELIEEIELEFPESEEEVLKKAEELAKELAEKYGLKIEIKPSA [r9_31_TrROS_Hall] | 3.56 ± 0.12 | 3.89 ± 0.085 | 2.41 ± 0.12
SKVRELLREIARPHGMPITDVKVEPPPDGWHKVTFQIQFPMKDPNGQPMRRMTFPATITVRNGKITEITISA [r9_519_TrROS] | 1.72 ± 0.34 | 1.56 ± 0.12 | 1.54 ± 0.11
SKYRILIHTPNPGMPPEEIIDELEEPGFKDVEVVDSPSELKELPPNYDIVIMFHNGQFQISIFPPEELDKSA [r9_750_TrROS] | 0.937 ± 0.2 | 1.4 ± 0.31 | 0.316 ± 0.14
SLDKARDILREHGMEPTSIDVVEDGWVKVTWEYPGNKVEIFIPEDGNIMIEFRNPNNGQRVERTIPVDDVSA [r9_2_TrROS] | 0.472 ± 0.15 | 0.753 ± 0.14 | -0.489 ± 0.2
SLKPGETKTLTLLIRTKDPEKTAEELAEEARKEIEELLPPGVKIEVKVTSVEPLPETGEVDVTVEVTVTASA [r9_706_TrMRF] | 2.97 ± 0.13 | 3.01 ± 0.06 | 3.02 ± 0.19
SLSEEEAKDNPEEANEKMQPPPVPPIPLPVPIRNPDNKQEFPAPFEIRTLPNHLEFRFPGNGKPFPVPIDSA [r9_548_TrROS] | 2.63 ± 0.28 | 2.87 ± 0.11 | 2.53 ± 0.24
SLSEEELKKKLEELKKKLKPPKPKVKKVKVKIKNKETNEEIEEEVEIVETPDTVYIYNKKTGKLFKFKIKSA [r9_548_TrROS_Hall] | 1.73 ± 0.29 | 1.95 ± 0.24 | 0.935 ± 0.11
SLSPSTPISSEEEAKEAAEKLAEEVREELGEDLPIVVDIERKELEDGTIVVKFTFYVPETGEKLLEVEVGSA [r9_794_JUSTAS] | 1.27 ± 0.16 | 1.56 ± 0.049 | 1.2 ± 0.097
SMAKVTGYPDIFLVTIYKDGEEKTIPVNFEELVELLKKGVKKVEFTTDNPEFAEKFYKLVKSLGVPVNLKSA [r9_810_TrMRF] | 2.33 ± 0.044 | 2.7 ± 0.04 | 1.44 ± 0.016
SMDLRLEVVSVEIEPEGRTLRIRVRVRLTALDPDDPDLPVPVLEVEVEIPIPLPEPLPLPVPNDPRALAASA [r9_357_TrMRF] | 2.25 ± 0.21 | 2.75 ± 0.037 | 1.63 ± 0.11
SMDPGDPILITIKIPPVPVYRYKRDPDGNPKGYEPVPMPSQELVIIIPANDLEKLLDLLQPFGLDVEIIPSA [r9_167_TrROS] | 2.08 ± 0.13 | 2.44 ± 0.083 | 1.58 ± 0.071
SMEEVKEALRKAGIDVPVTKIETEKLPDGSYKVTLTVGDKKVLTVYVPPEPPEPPVFYRTPPNGSREPVLSA [r9_442_JUSTAS] | 0.504 ± 0.18 | 0.528 ± 0.27 | 0.291 ± 0.12
SMEITLLSTDPTPGGMTTALWETPNRKVTIFKPPSENYYIVTVEIPGTGKTKTLRFPKNVSPEEIVKKLGSA [r9_522_JUSTAS] | 1.78 ± 0.074 | 1.55 ± 0.091 | 1.88 ± 0.034
SMETLEIEITVKVEKDENGKIRKVSVEELKEELEKAGFKITEIEITEVTENTVKIKIKIEKPEEEEEEEESA [r9_225_TrROS_Hall] | 3.25 ± 0.55 | 3.26 ± 0.24 | 2.97 ± 0.36
SMEVKIELTDEEIEAALEAGYEVEIEVRVVEVEYDEETDEVTVKVEVTITIRPVPPPPEVVVDEETGEILSA [r9_396_TrROS_Hall] | 1.27 ± 0.34 | 0.342 ± 0.057 | 2.1 ± 0.23
SMFTLVLPDGSVIPVIKGDSTTTVYDPRTGRTLPIPSSTVEENSIEEIVERILAELEKLGVPAQPVEILESA [r9_1211_JUSTAS] | 1.84 ± 0.034 | 1.72 ± 0.032 | 1.99 ± 0.035
SMGVKIEIDKEIIEKAIEEGKTFEADAKIKIEAYNPKTGKKIAEAEKIVKIRLEIEPPKAEPDPETGKPESA [r9_396_TrMRF] | 0.633 ± 0.13 | 0.36 ± 0.066 | 0.661 ± 0.071
SMIDIEISTDPNNPNVITVTAKYPDPEKAKEYLEKKLKEEYDVISISYEYEPENPIITFTFTYASPEKPQSA [r9_1120_JUSTAS] | 2.79 ± 0.15 | 3.11 ± 0.052 | 2.37 ± 0.078

Sequence | folding stability dG unfold [1] [kcal/mol] | folding stability dG unfold [2] [kcal/mol] | folding stability dG unfold [3] [kcal/mol]
SMIIKPGMSLEEVLNKIKELLKKGEKYKITVINKETGKVYEFEIDVKTKKIKVKEVTLENGEVIIKIEKVSA [r9_1059_TrROS_Hall] | 3.05 ± 0.12 | 3.54 ± 0.07 | 1.93 ± 0.046
SMIIPPELGFEEAVELIKELLEPEKTYLVVTGDPETGTLSVARLDPETGEVEVEPLPTTEGESFVAVFEISA [r9_1059_TrMRF] | 1.27 ± 0.07 | 1.3 ± 0.059 | 1.09 ± 0.044
SMIKIKLKNGMEITIEKTPEKVKIKLKATGKEIELPLEELENMTEEELLEKLRKLAEELGMEVEEVEIEPSA [r9_1211_TrROS_Hall] | 3.38 ± 0.11 | 3.43 ± 0.083 | 3.18 ± 0.14
SMIKIKVVEKKDGKYKIKIENKKTGKTFEFEFDTKEEAEEAEKNPGKTIYLSEEALKKLKKENITKVEKVSA [r9_390_TrROS_Hall] | 1.11 ± 0.15 | 1.24 ± 0.087 | 0.442 ± 0.065
SMIKPGDTVTIVLKVKPEDLEKIREAVEELLRELFPDVEVESVEVNPEEENYVVITVRVDGKEITLVIERSA [r9_1079_TrROS_Hall] | 2.5 ± 0.041 | 2.262 ± 0.021 | 2.78 ± 0.048
SMITIEINVGNKKYTVEIVPEKGIIKITDPNGTPIGEGEIKPDSIDITLTKPNTDETYKFTFPIPPESLPSA [r9_963_JUSTAS] | 2.69 ± 0.18 | 3.04 ± 0.12 | 2.29 ± 0.1
SMIVKSEPVKDPNSDLTTTPVTITLPVREYDPSLGVTRERLVTINGTVITTLLEKHPDGSVISTVDVLPASA [r9_1058_JUSTAS] | 0.427 ± 0.049 | 0.69 ± 0.039 | -0.177 ± 0.026
SMIVTEEVSYDPSTNTRTITKTVYEKDENGNLVPVETEVVVEPVEEPPPYVPVIKVPPSNKTPEDRVKVLSA [r9_888_JUSTAS] | 0.781 ± 0.35 | 1.02 ± 0.27 | -0.035 ± 0.23
SMKDATSTSIGSRTYTYPNTDPSVSPEELKEKVIEEIKKEPELKAVEITVEVDPSTGTVTITINLTKLVKSA [r9_1001_JUSTAS] | 1.5 ± 0.077 | 1.76 ± 0.054 | 1.14 ± 0.021
SMKIEVSGGNVTVEMYMWRRKKERDPDDPGKERDQPEPMPQTHTIDPNDPEAAKKFLDKFPPGFRPEIHDSA [r9_476_TrROS] | 0.446 ± 0.25 | 0.0896 ± 0.43 | 0.594 ± 0.19
SMKIKIKVETNPNGEKKIEIEIELKEEDIEFDEGMTLEERKEKLRELAEELAKKLKEEGKEVKIVEIEVESA [r9_751_TrROS_Hall] | 2.1 ± 0.17 | 2.27 ± 0.048 | 1.8 ± 0.067
SMKIKIPVLIKVDPSETIEEVLEKVKEIAEEIAKFLESKGGPVEVKADVEPIPEIDYVIVTVEAYVPEEASA [r9_1161_TrMRF] | 1.54 ± 0.17 | 1.8 ± 0.082 | 1.53 ± 0.075
SMKIKIYVAPPGYVVVRITGPNGFYIPIPAKDPDEAKAKLEELINNLQERNGHKPDIDVVPFPPGQEIGDSA [r9_786_TrROS] | 1.93 ± 0.15 | 2.22 ± 0.1 | 1.39 ± 0.044
SMKIPGMSAKEKLRKAIEALLEEAEKKGIKEITIKIYNKKTKKPIKEIKFKSKEELLKKIEEGDEVEIEFSA [r9_718_TrROS_Hall] | 1.83 ± 0.13 | 1.71 ± 0.061 | 2.1 ± 0.045
SMKIPVKTNDPEALKELLNKIKEILEKAKEKGYEIFPIPIILDNGKEIIFPIDPNDKIEEVIKKIEEALKSA [r9_127_TrMRF] | 2.02 ± 0.23 | 1.38 ± 0.097 | 2.7 ± 0.15
SMKITEIEPDGDGTLEIEIPVEAPPGMDPDEVQIYVMSDDGIRHVRITPNGTVEITIENIPDIRIYIFVHSA [r9_722_TrROS] | 2.26 ± 0.079 | 2.47 ± 0.073 | 1.79 ± 0.051
SMKITTDPVNKTISATFPPGTDPLAETQKIVDEVKKKENSGDITITFSTGNTTINYTLGTNTVTTTPAGTSA [r9_224_JUSTAS] | -0.0954 ± 0.096 | -0.35 ± 0.19 | -0.0577 ± 0.063
SMKIVEVEVFEDPETGKLVVIVKLDGEEVVEVEEGEKVEIEVEPGDTLLVFVVDAETGEIKEEKEIKVEESA [r9_209_TrROS_Hall] | 1.11 ± 0.16 | 1.2 ± 0.12 | 0.541 ± 0.12
SMKIVIVKNKDGTVIVRITFPNGEEITITAKTEEEAKKAIEELIKKLQEKYNIKIKIEVKPVKPGEVIEESA [r9_786_TrROS_Hall] | 2.93 ± 0.15 | 2.84 ± 0.08 | 2.92 ± 0.093
SMKIYKTKEEAEKAAKETGKKVIVIKKGMSLEELLELLKKLKGLKEGQKVILVIQNEDGETYVIVLEIKPSA [r9_314_TrROS_Hall] | 1.74 ± 0.17 | 1.43 ± 0.13 | 1.82 ± 0.099
SMKKKVVVKAKIEKIRPDGGKEELEEVFVMEVSPDDPEEIKAAIDEAIEALKKAYPNIKKIEIEEVIIEDSA [r9_436_TrMRF] | 3.79 ± 0.36 | 3.36 ± 0.21 | 3.81 ± 0.24
